From US20240368242A1 come the findings set out here.

The target in test [1] is recombinant human CD47 protein (human) (UniProt Q08722). The experiment in a line: SPR, binding to human CD47.
The target of test [2] is Human FcRn (human) (UniProt P55899). As to the kind of experiment: SPR, binding to human FcRn.
Test [3] concerns the target Human FcγR1A. As to the kind of experiment: SPR, binding to human FcγR1A.
The target in test [4] is FcRn-His (Example 11). The experiment in a line: SPR (BioRad ProteOn XPR 360), His-tagged target chip-bound.
Sequence of FcRn-His (Example 11) (Q61559 22-297, chain 1 of 2): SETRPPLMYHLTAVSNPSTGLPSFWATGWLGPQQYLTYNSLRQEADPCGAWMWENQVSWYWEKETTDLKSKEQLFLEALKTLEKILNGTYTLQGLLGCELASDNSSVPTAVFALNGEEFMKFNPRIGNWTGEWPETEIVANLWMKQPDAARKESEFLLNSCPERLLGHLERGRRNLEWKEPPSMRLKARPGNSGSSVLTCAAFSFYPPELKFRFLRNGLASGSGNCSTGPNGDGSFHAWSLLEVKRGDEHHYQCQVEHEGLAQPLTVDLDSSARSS
Sequence of FcRn-His (Example 11) (P01887 21-119, chain 2 of 2, further chain): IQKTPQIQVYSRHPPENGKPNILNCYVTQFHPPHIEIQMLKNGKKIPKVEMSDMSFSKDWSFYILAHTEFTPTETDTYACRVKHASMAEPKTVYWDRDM
In test [5] the target is murine OX40 expressed on CHOK1 cells (CHOK1/mOX40) (murine) (UniProt P47741). As to the kind of experiment: flow cytometry on CHOK1-mOX40 cells.
Sequence of murine OX40 expressed on CHOK1 cells (CHOK1/mOX40) (murine) (P47741 20-272): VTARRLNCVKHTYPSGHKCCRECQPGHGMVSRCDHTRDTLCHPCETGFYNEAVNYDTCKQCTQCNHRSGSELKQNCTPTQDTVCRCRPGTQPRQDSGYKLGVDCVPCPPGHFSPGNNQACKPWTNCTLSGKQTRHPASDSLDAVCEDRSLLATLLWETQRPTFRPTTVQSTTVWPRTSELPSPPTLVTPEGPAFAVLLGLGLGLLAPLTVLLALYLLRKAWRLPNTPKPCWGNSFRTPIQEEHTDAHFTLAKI

pKd: −log10 of the molar value.

Sequence of recombinant human CD47 protein (human) (Q08722 19-139 limits assumed): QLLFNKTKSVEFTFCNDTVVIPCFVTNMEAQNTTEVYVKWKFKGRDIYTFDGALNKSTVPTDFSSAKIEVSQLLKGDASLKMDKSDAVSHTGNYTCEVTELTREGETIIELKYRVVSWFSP
Sequence of Human FcγR1A (chain, as listed by the source limits assumed): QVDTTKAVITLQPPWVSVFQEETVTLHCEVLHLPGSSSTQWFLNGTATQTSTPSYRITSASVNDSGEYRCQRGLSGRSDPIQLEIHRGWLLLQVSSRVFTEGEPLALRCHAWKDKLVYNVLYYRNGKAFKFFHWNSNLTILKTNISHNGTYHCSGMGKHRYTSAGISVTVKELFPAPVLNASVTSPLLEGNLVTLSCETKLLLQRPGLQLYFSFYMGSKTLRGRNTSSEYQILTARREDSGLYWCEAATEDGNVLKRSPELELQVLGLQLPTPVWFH
Sequence of Human FcRn (human) (P55899 24-297 limits assumed, chain 1 of 2): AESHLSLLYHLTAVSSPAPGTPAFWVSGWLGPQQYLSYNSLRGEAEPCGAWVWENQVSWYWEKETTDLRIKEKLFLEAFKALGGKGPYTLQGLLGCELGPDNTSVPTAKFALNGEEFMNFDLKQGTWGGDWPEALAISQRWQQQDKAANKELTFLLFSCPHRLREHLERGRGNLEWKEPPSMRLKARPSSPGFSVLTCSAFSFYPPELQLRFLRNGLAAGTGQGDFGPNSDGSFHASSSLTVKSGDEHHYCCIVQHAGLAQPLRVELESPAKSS
Sequence of Human FcRn (human) (chain, as listed by the source limits assumed, chain 2 of 2): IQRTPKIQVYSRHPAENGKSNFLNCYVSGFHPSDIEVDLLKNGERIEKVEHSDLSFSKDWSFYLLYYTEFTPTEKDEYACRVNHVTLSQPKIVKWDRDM

As for CD172a-Fc Cntl (Fc fusion), in test [1], the pKd was 8.50, the koff amounted to 0.00239 s⁻¹ and the kon turned out to be 756000 M⁻¹ s⁻¹.

With IgG1 (antibody), the results for the koff in test [2] and in test [3] were 0.0046 s⁻¹ and 0.00044 s⁻¹, respectively. The on-rate constant (kon) in test [2] was determined as 945000 M⁻¹ s⁻¹; in test [3] it was 24900 M⁻¹ s⁻¹.

Turning to “IgG2A (control protein, Example 11) (antibody)”, in test [4], the pKd is 8.09, the koff was determined as 0.0242 s⁻¹ and the on-rate (kon) was found to be 3e+06 M⁻¹ s⁻¹.

The substance “murine TIM3-Fc-OX40L chimeric protein (from UniProt Q8VIM0 20-193; P43488 51-198) (Fc fusion)” displayed an affinity (cell binding assay) in test [5] of 15.2 nM.
